Measurements from the nanobody polyreactivity screen of Harvey et al. (2022).

Assay: yeast display, Sf9 membrane polyspecificity reagent, FACS + sequencing; frameworks hold sequencing errors
Outline: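 In a synthetic yeast display library (Saccharomyces cerevisiae BJ5465), nanobody expression was induced with galactose for 36–48 hours. FACS gates were set low and high (top ~1%) using anti-HA fluorescence for expression and streptavidin fluorescence for binding of the Sf9 membrane reagent. Each polyreactivity label is drawn from the gate of origin.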

Row | Sequence | polyreactivity (PSR sort gate)
1 | QVQLVESGGGLVQAGGSLRLSCAASGRIFGAYAMGWYRQAPGKERELVATITKRGGSTFYADSVKGRFTISRDNAKNTVYVKMNSLKPEDTAVYYCAVVRYSPKRYWYGYWGQGTQVTVSS | high polyreactivity
2 | QVQLVESGGGLVQAGGSLRLSCAASGSIFGLYAMGWYRQAPGKERELVAAINQSGGSTSYADSVKGRFTISRDNAKNTVYLQMNSLKPEDNAVYYCNRVRLNTEGFDYWGQGTQVTVSS | low polyreactivity
3 | QVQLVESGGGLVQAGGSLRLSCAASGFIFRPYAMGWYRQAPGKERELVAAISYGDGITYYADSVKGRFTISRDNAKNTVYLQMNSLKPEDTAVYDCAVDSHPEEYDYWGQGTQVTVSS | low polyreactivity
4 | QVQLVESGGGLVQAGGSLRLSCAASGLTFLYYAMGWYRQAPGKERELVAAISRSGGSTYYADSVKGRFTISRDNAKNTVYLQMNSLKPEDTAVYYCAAGRRGGKQGGTRGGDYWGQGTQVTVSS | high polyreactivity
5 | QVQLVESGGGLVQAGGSLRLSCAASGLTFTKNVMGWYRQAPGKERELVAVISRSGGSTYYADSVKGRFTISRDNAKNTVYLQMNSLKPEDTAVYYCNVKGPGPSRGNYWGQGTQVTVSS | low polyreactivity
6 | QVQIVESCGGLVQAGGSLRLSCAASGITFDVNTMGWYRQAPGKEREMVAAITRDVTTNYADSVKGPFTISRDNAKNTVYLQMNSLKPEDTAVYYCAADGYGQYSQVTDHPYKYNYWRQGTQVTVSS | low polyreactivity
7 | QVQLVESGGGLVQAGGSLRLSSAASGSTFGYYAMGWYRQAPGKERELVAVIRSRTGDTNYADSVKGRFTISRDNAKNTVYLQMNSQKPEDTAVYYCNAALWYGSTIYSYRYGYWGHGTQVTVSS | high polyreactivity
8 | QVQLVESGGGLVQAGGSLRLSCAASGNIFILNAMGWYRQAPGKERELVAAISTTGGSTYYADSVKGRFTISRDNAKNTVYLQMNSLKPEDTAVYYCAAYTYRYSTFYYWGQGTQVTVSS | high polyreactivity
9 | QVQLQESGGGLVQVGGSLRLSCAASGTIFIYGFLGWNRQAQGKELELVASINLGGITNYADSVKGRFTISRDNAKNTLYLQMISLKTEDTAVYYCAAYVVTGQNYGYWGQGTQVTVSS | low polyreactivity
10 | QVQLVESGGGLVQAGGSLRLSCAASGRISQTNAMGWYRQAPGKERELVAAISWRGGSTYYADSVKGRFTISRDNAKNTVYLQMNSLKPEDTAVYYCAVRGKYDRHYYWGQGTQVTVSS | high polyreactivity
11 | QVHLVESGGGLVQAGGSLRLSCDASGLTLWTYAMGWSRQAAGKEMELVARIRSGGSTYYADSVKGRFTFSRDNAKNTVYLQMNSLKPEDTAVYSCNAKRYGRWAAAGRVGYDYWGQGTQVTVSS | high polyreactivity
12 | QVQLVESGGGLVQAGRSHRLSCAASGIIFYKYAMGWYRQAPVKERELVAAISGTGGSTYYADSVKGRFTISRDNAKNTVYLQMNSVTAEDPAVYYCAATHYSFSWGYDYWGQGTQGTVSS | high polyreactivity
13 | QVQLVESRGGLVQAGGSLRLSCAASGFTFWFYAMGWYRQAPGKERELVAAISNAGGTNYADSVKGRFTISRDNAKYTVYLQMNSLKPEDTAVYYCAAAWPHWGDLGGTEWYLFYYWGQGTQVTVSS | low polyreactivity
14 | QVQLVESGGGLVQAGGSLRLSCAASGFIFRDNAMGWYRQAPGKERELVASIRSSGGRTYYADSVKGRFTISRDNAKNTVYLQMNSLKPEDTAVYYCARRWYPVTPYARMYYWGQGTQVTVSS | low polyreactivity
15 | QVQLVESGGGLVQAGGSLRLSCAASGSIFGKNAMGWYRQAPGKDRELVAAISWSGGRTYYADSVKGRFTISRDNAKNSVYLQMNSLKPEDTAVYYCAASWWGVARGSSRKKYDYWGQGTQVTVSS | high polyreactivity
16 | QVQLVESGGGLVQAGGSLRLSCAASGFIFRYYTMGWYRQAPGKERELVAVITSGGTTYYADSVKGRFTISRDNAKNTVYLQMNSLKPEDTAVYYCAADTFYIYEDVLYVQGDYYWGQGTQVTVSS | low polyreactivity
17 | QVQLVESGGGLVQAGGSLRLICAASGFISSENAMGWYRQAPGKERELVAAISSGGSTNYADSVKGRFTISRDNAKYTVYLQMYSLKPEDTAVYYCNAEAIQAVYYAYEYWGQGTQVTVSS | low polyreactivity
18 | QVHLVQSGGGLVQAGGSLRISSAASGSTFSPYDMGRYRQAPGKEREMVAGITDGAITTYADSVKGSFTISRDNANNTVYLQMNSLKPEDTEVYYCAAFLWAKYHPGYYYWGQGTQETVSS | low polyreactivity
19 | QDQLVESGGGLVQAGGSLRLSCAASGSSFDINAMGGYRQAPGKERELVAAISWIGGSTYYADSVKGRFTISRDNAKNTVYLKMNSLKPEDTAVYYCAKKELRQYDMEYWGQGTQVTVSS | low polyreactivity
20 | QVPLVESGGGLVQAGGSLRISCAASGSTFWYYAMGWYRQAPGKEREMVATITSTGTTNYADSVKGRFTISRDTAKNTVYLQMNSLKPEDTAVYYCNARSWSYSYPYLTYYYIAGYWGQGTQVTVSS | low polyreactivity
21 | QVQLVESGGGLVQAGGSLRLSCAASGITFPRYTMGWYRPAPGKERELVAAISSGGSTYYADSVKGRFTISRDNAKNTVYLQMNSLKPEDTAVYYCNAVVPYWYYIYDYWGQGTQVTVSS | high polyreactivity
22 | QVQLVESGGGLVQAGGSLRLSCAASGFIFAYYAMGWYRQATGKERELVAGITRGSSTYYADSVKGRFTISRDNAKNTVYLQMNSLKPEDTAVYYCARGYTWFYAVWPEYDYWGEGTQVTVSS | high polyreactivity

Row | Sequence | polyreactivity (PSR sort gate)
23 | QVQLVESGGGLVQAGGSLRLSCAASGRIFGYYAMGWYRQAPGKERELVAAISSRGSRTYYADSVKGRFTISRDNAKNTVYLQMNSLKPVDTAVYYCATYDYWGQGTQVTVSS | high polyreactivity
24 | QVQLVESGGGLVQAGGSLRLRCASSGGIFYLNAMGWYRQAPGKERELVAAITGTGGNTYYADSVKGRFTISRDNAKNTVYLQMNSLKPEDTGVYYCNVSSRRLRGLDYWGQGTQVSVSS | low polyreactivity
25 | QEQLQESAGGLVQACGSQRLSCAASGSISEGQDMGSYRRAPGKEREFVAGIAPGATTYYADSVKGRFTISRDNAKKTVYRQMNSLKAEDTAVYYCAARSVTETDHDYWGQGTQVTVSS | low polyreactivity
26 | QVQLVESGGGLVQAGGSLRLSCAASGRTFTTYTMGWYRQAPGKERELVAAISWGGTSTYYADSVKGRFTISRDNAKNTVYLQMNSLKPDDTAVYYCNVLERGPGGPDDSWGQGTQVTVSS | low polyreactivity
27 | QFQLVESGGGLVQAGGSLRLSCAASGLIFGAYDMGWYRQAPGKERELVAAITYSGGRTHYADSVKGRFTISRDNAKNTVYLQMNSLKPDDTAVYYCAAGSSHHFDYEGGYWGKGTQVTVSS | low polyreactivity
28 | QVQIVESGGGLVQAGGSLRLSCAASGFTFYGYAMGLYRQAPGKERELVATISGRGGRTYYADSVKGLFTISRDNAKNTVYLQMNSLKPVDTAVYFCAAVSSYRYYGDYYWGQGTQVTVSS | high polyreactivity
29 | QVQLVESGGGLVQAGGSLRLICAASGSIFWGYAIGWFRPAPGKERELVAGITATGGSTYYADSVKGRFTISRDNAKNTVYLPMNSLKPEDTAVYYCAAEHGRLATYTWWVIYDYWGHGTQVTVSS | low polyreactivity
30 | QVQLVESGGGLVQAGGSLRLSCAASGGTLYRNVMGWYRQAPGKERELVAAISKSGGSTYYADSVKGRFTISRDNAKNTFYLQMNSLKPEDTAVYYCDVSHNRGYDSWGQGTQVTVSS | high polyreactivity
31 | QVQLVESGGGLVQAGGSLRLSCAASGRIFAFYAMGWYRQAPGKERELVAAISWSGGSTYYADSVKGRFTISRDNAKNTVYLQMNSLKPEDTAVYYCAAYRTRGSAYPYDYWGQGTQVTVSS | high polyreactivity
32 | QVQLVESGGGLVQAGGSLRLSCAASGIIFINYAMGWYRQAPGTERELVAVITRGGSTYYADSVKGRFTISRDNAKNTVYLQMNSLKPEDTAVYYCNARYLSWWTGRFNYWGQGTQVTVSS | high polyreactivity
33 | QVQLVESGGGLVQAGGSLRLSCAASGITFTSYVMGWYRQAPGKERELVAAIRWSGGRTYYADSVKGRFTITRDNAKNTVYLQMNSLKPEDTAGYYCAAKRKPRPSYRYGYWGQGTQVTVSS | high polyreactivity
34 | QVQLVESGGGLVQAGGSLRLSCDASGSIFQRYAMGWYRPAPGKERELVAGINWSGGRTYYADSVKGRFTISRDNAKNTVYLQMISLKPEDTAVYYCAAARYTRYDYWGQGTQVTVSS | high polyreactivity
35 | QVQLVESGGGLVQAGGSLRLSCAASGGIFIGYAMGWYRQAPGKERELVARIRSSGGTTYYADSVKGRFTISRDNAKNTVYLQMNSLKPEDTAVYYCAKRTSSSWAYGPYYYWGQGTQVTVSS | high polyreactivity
36 | QVQLVESGGGLVQAGGSLRLSCAASGRIFPPNAMGWYRQAPGKERELVAGITSSGDTTYYADSVKGRFTISRDNAKNTVYLQMTSLKPEDTAVYYCAKDEVYADDRSALFDYWGQGTQVTVSS | low polyreactivity
37 | QVQLVESGGGLLQAGGSLRLSCAASGRTFYSNAMGWYRQAPGKERELVATISSGGSTNYADSVKGRFTISRDNAKNTVYLQMNSLKPEDTAVYYCAKRTHQFGVSRSYNTYYYWGQGTQVTVSS | low polyreactivity
38 | QVQLVESGGGLVQAGGSLRLSCAASGFIFYWYAMGWYRQAPWKEREFVAAISSSGGNTSYADSVKGRFTISRDNAKNTVYLQMNSLKPEVTAVYYCAATSRAFYRSLYYYWGQGTQVTVSS | low polyreactivity
39 | QVQLVESGGGLVQAGRSLRLSCAASGSIFTYYAMGWYRQGPGQERELVAAINWSGGGTYYADSLKGRFTISRDNAKINVYLQMNSLKPEDTAVYYCNALRKTYRLDYWGQGTQVTLSS | high polyreactivity
40 | QVQLVESGGGLVQAGGSLRLSCAASGITFAYYVMGWYRQAPGKERELVATITGRGGSTSYADSVKGRFTISRDNEKNPVYLQMNSLKPEETAVYYCATGRYSVADNYWGQGTQVTVSS | high polyreactivity
41 | QVQLVESGGGLVQAGGSLRLSCAASGRIFAFYTMGWYIQAPGKERELVAAITRRSGSTYYADSVKGRFTISRDNAKNTVYLQMNSLKPEDTAVYYCAVDTYIYTNRRYTKFDYWGQGTQVTVSS | low polyreactivity
42 | KGQLVESGGGLVQAGGSLRLSCAASGSIFGENAMGWYRQAPGKERELVAAITSSGSTYYADSVKGRFTISRANAKNTVYLQMNSLKPEDTAVYYCAKVSVLRMDYWGQGTQVTVSS | low polyreactivity
43 | QVQLVESGGGLVQAGGSLRLSCAASGRIFRSNAMGWYRQAPWKERELVATITSSGGRTYYADSVKGRFTISRDNAKNTVYLQMNSLKPEDTAVYYCIAQQRTRGQKAQWVRDEYWGQGTQVTVSS | low polyreactivity
